Tested on: MS2 coat protein
Assay: apparent KD of MS2 coat protein; higher = weaker reporter binding
Conditions: Eterna round: R107
Procedure, shortened: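 Titration buffer: 100 mM Tris-HCl pH 7.5, 80 mM KCl, 4 mM MgCl2, without or with constant ligand. Designed RNA switches transcribed on-chip from Illumina sequencing clusters received SNAP-549-labelled MS2 coat protein in twofold steps from 0.7 or 1.5 nM to 3 µM. Apparent KD is the median per design of fits to normalised cluster binding curves.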

[1] = input ligand: theophylline 20 uM
[2] = input ligand: theophylline 2 mM
[3] = input ligand: tryptophan 2.4 mM

| Sequence | apparent KD of MS2 coat protein (input ligand: arginine 13.2 mM) [nM] | apparent KD of MS2 coat protein (input ligand: none) [nM] | apparent KD of MS2 coat protein [1] [nM] | apparent KD of MS2 coat protein [2] [nM] | apparent KD of MS2 coat protein [3] [nM] |
| --- | --- | --- | --- | --- | --- |
| UAACAUGAGGAUCACCCAUGUUUAGAUGAACGAGGACCGGUACGGCCGCCACUCGAUAAGUGGAAAGAGCGAGGGAUUGUAUGCU [Same State Trp A GF4] | 12.2 | 12.4 | 16.2 | 10.3 | 11.9 |
| ACAUGAGGAUCACCCAUGUUCCUCUUUGAUACCAGUGAGUUGUUUCGCCCUUGGCAGCGAGUGUUUGUUUUUUUGUUUUGUUUGG [6.S] | 137 |  | 314 |  | 229 |
| UCAUAAGUACCGGUCCUCAGAUCCUCAUGACGAGGACCGGUACGGCCGCCACUCGAAACAUGAGGAUCACCCAUGUAAUAAUACU [Brourdmod15] | 22.5 |  | 37.9 | 31.9 |  |
| AACAUACAUGAGGAUCACCCAUGUCACGAUACCAGAUACAUGAGGAUCCCUUGGCAGCGUCAUGAGGAUCACCCAUGUUGUACAU [Exclusion Theophylline A 2] | 20.3 |  | 22.7 |  | 17.7 |
| CCAUACGUAACUGAUACCAGUGUACUGACAUGAGGAUCACCCAUGUUGGGUUUUGUUGUACACCCUUGGCAGCAGAAUCGUAUGG [AstrosExyTheB#19] | 56.5 |  | 65.1 |  | 65.8 |
| AGUACUCGAACGGAUACCAGCCGGACAUGAGGAUCACCCAUGUCCUACCAUGUUUCGGUUGGCCCUUGGCAGCCGUUCGUGUACA [Omei Theo B SS A v1] | 207 |  | 428 |  | 736 |
| GAGUAGAGGACGGCCGCCACUGAACAUGAGGAUCACCCAUGUCGUGAUCCGUUACCUAGGGUAGAUAGGACCGGGUCAUGUACUC [Exclusion Tryptophan B GF 18] | 37.2 |  | 68.8 | 56.7 |  |
| ACUCGGUGUUUGUUGCUCCGAGUGUAUGAUACCAGUUAGUUUUAUGGCCCUUGGCAGCAUAGGACAUGAGGAUCACCCAUGUGUU [#02 SameState-TheophyllineA] | 27.3 |  | 41.1 |  | 34.9 |
| AAUUGCGUUGGUGAGGCGGUUAAUGGCGAUACCAGCGUGGAAACACGCCCUUGGCAGCGCCAAAACAUGAGGAUCACCCAUGUUA [Liberec] | 50.7 |  | 149 |  | 82.5 |
| UUCUUUAAGUCGGCCGCCACUGAAACAUGAGGAUCACCCAUGUAAAUUUGGGAGUAGGUAUAUUACAGGACCGGGACUAUAGUAA [JR_ExcTryptoB_Sub021] | 29.2 |  | 31.2 | 27.3 |  |
| AAACAUGAGGAUCACCCAUGUAUACUUAGACGAGGACCGGUACGGCCGCCACUCGAACUUCAAGAUUUGGCGGAAAAUGUAUGUA [JR_ExcTryptoA_Sub022] | 9.71 |  | 13 | 12.1 |  |
| UGGUACAUGAGGAUCACCCAUGUUCCAGAUACCAGUGUCCCGCUGCACCCUUGGCAGCUGGUGGCACAUGAGGAUCACCCAUGUG [Exclusion Theophylline A GF12] | 11.5 |  | 16.3 |  | 15.1 |
| UGUAUGUGAUCUGAUACCAGACGUGUAAACCUGAGGAUCACCCUGGUAAGGCGAAAGCCAGUCCCUUGGCAGCAGAUCGCAUACU | 47.7 | 49 | 40 | 21.5 | 50 |
| ACAUGAGGAUCACCCAUGUACAUAAGGGAAGGAGCGCGGUGAGACGCAGGUAGGUCGCCCAUAAUAACAAACAUUAAAUUCAUGU [#25 Same State - Arginine A] | 17.2 | 17.7 | 25.5 | 21.3 | 19.1 |
| UAUAACAUGAGGAUCACCCAUGUAAGUGAUACCAGAUAAAUAAUAGUCCCUUGGCAGCAUAUUGGGAAAAUGUAUAAUAUAUAUU [Same State - Theophylline A (Freestyle 1)] | 49.9 |  | 72.1 |  | 49.4 |
| AUUAAUAGUUGUGAUACCAGACGAACAUGAGGAUCACCCAUGUAACUUAAGAGUGUUGAUGUCCCUUGGCAGCACUGUUUAGUUA [JR_SSTheophyB_Sub015] | 59.5 |  | 105 |  | 91.5 |
| GGUGGCGUGACGGAUACCAGCCACCACCGUUAGACCACAUGAGGAUCACCCAUGUUGGGUGGCCCUUGGCAGCUGUCGUGCGGCG [#1 Same State - Theophylline B Attempt #18 (HarryS)] | 140 | 377 | 250 | 113 | 337 |
| GGUGACUGCAUGUGGAAUUAAGGUAGGGAAGGAGCGCGGUAAGACGCAGGUAGGUCGCCCUACAUGAGGAUCACCCAUGUGGUGU [Beenmaer] | 114 | 121 | 135 | 500 | 36.5 |
| GGACUAACCAGAAGGAGCGACACGCAGAAACUGCUAUUUCCUCCGCACGAGGAUCACCCGUGUCAGGUAGGUCGCUGGUUAGUCG [ArgBX 28] | 22.1 | 19.5 | 25.4 | 20.3 | 21.4 |

| Sequence | apparent KD of MS2 coat protein (input ligand: arginine 13.2 mM) [nM] | apparent KD of MS2 coat protein (input ligand: none) [nM] | apparent KD of MS2 coat protein [1] [nM] | apparent KD of MS2 coat protein [2] [nM] | apparent KD of MS2 coat protein [3] [nM] |
| --- | --- | --- | --- | --- | --- |
| UGUAUGUGAUCUGAUACCAGUCCAACUGGUAAAGCAUGAGGAUCACCCAUGCAAAAUUGGGACCCUUGGCAGCAGAUCGCAUACU | 167 | 264 | 213 | 28.1 | 267 |
| CGUAGGAUCGUGGAUACCAGUACCGCCCACGACAUGAGGAUCACCCAUGUAGGUAAUCUUUACCCUUGGCAGCCAUUUUUUUCUG [theeternabot_sameState_MS2_Theo_B_14] | 41 |  | 72.6 |  | 45.2 |
| AAUUAUUACGGAAGGAGCGUCUUUCGGCUCAAACAUGAGGAUCACCCAUGUGAUUUUGAAUGACAGGUAGGUCGCCGAUAUUUGA [JR_AAArginiB_Sub030] | 24.4 | 26.4 | 41.5 | 32.1 | 25.2 |
| GGAUAGGACGGAAGGAGCGACGUGAGGCUAAUGUCCAGUCUUCUACAUGAGGAUCACCCAUGUCAGGUAGGUCGCCGUCCUAUCG [#21 Exclusion - Arginine B] | 30.3 | 28.1 | 51.7 | 40.7 | 41.8 |
| CUCUGAGUGAUCGCUCACUCAGAGGCGGAUACCAGCGAGGUCCAUCGCCCUUGGCAGCCGAACAUGAGGAUCACCCAUGUCGGUA [#1 Same State - Theophylline A Attempt #20 (HarryS)] | 8.77 | 10.3 | 13.7 | 12.9 | 8.98 |
| GGCACCAGGCGAAGGAGCGUGAAGACAUGAGGAUCACCCAUGUAGAGGCCCGGACAGGGUUCGCAGGUAGGUCGCGCCUGGUGCC [#1 Same State - Arginine B Attempt #9 (HarryS)] | 22.9 | 16.2 | 40.6 | 26.8 | 13.5 |
| AUACAUGAGGAUCACCCAUGUCAUUCAGAAGGAGCGUCAUUAUUGACAGGUAGGUCGCUGAUAAAAUUUUUAUACAUUAUGUUUA [JR_SSArginiA_Sub014] | 31.9 | 16.3 | 20.9 | 18.1 | 17.3 |
| AAACGUUGCUGCGAUACCAGACAUGAGGAUCACCCAUGUACCGAGGUACCCGAAAGGAAUGUCCCUUGGCAGCGCAGCAACGAAA [MAT - Exclusion Theophlline B - Mod of Eli - D24] | 11.2 | 11.7 | 15.3 | 124 | 11.7 |
| AGACAUGAGGAUCACCCAUGUAGUACGGAUACCAGAUCCAGAUGCGUCCCUUGGCAGCUGUAGUACAGCGUUACGUCGCUCAUAG [Exclusion - Theophylline A (Freestyle 26)] | 20.3 |  | 48.1 |  | 28.4 |
| AGAUUCGACACGGCCGCCACUUUCAGUGGCUGGUCACAUGGUGCACAUGAGGAUCACCCAUGUGGAAGGACCGGGUGUUGAGUCU [XTryp B #25] | 23 |  | 45.2 | 38.3 |  |
| ACACCGAAAGGUGCAUUUUCCUUUUCAGAUACCAGACUUUACGUUGUCCCUUGGCAGCUGUAUCACAUGAGGAUCACCCAUGUUG [JR_SSTheophyA_Sub012] | 16 |  | 21.4 |  | 15.9 |
| AAGCUGACAAGAAGGUGUUCCUAAGCUGAUACCAGCCUGGAAACAGGCCCUUGGCAGCAGCACAUGAGGAUCACCCAUGUAAUAA [(T)'-(M)'-(T1)-(T2)-(M1)-(M2)_Design2(Mismatches)] | 101 |  | 172 |  | 115 |
| UAUCGCGCGGCGGCCGCCACUAAUGGCAGAUCUGUCGACUAACAUGAGGAUCACCCAUGUCUAACUAGGACCGGGCCCAAGUUGU [theeternabot_sameState_MS2_Trp_B_7] | 30.5 |  | 66.2 | 59 |  |
| UUUGAUAUGACAGAUACCAGCGUGUUGUUGAACAUGAGGAUCACCCAUGUAGUGAUCAAGCGCCCUUGGCAGCUGGUGUGUUAGG [7.P] | 55.5 |  | 323 |  | 158 |
| ACACGUGACAAGGAUACCAGCCUGGCUAGUUCAAACCCUCACAUGAGGAUCACCCAUGUAGGCCCUUGGCAGCCUAUAGUCUAAG [theeternabot_exclusion_MS2_Theo_B_38] | 27.7 |  | 43.7 |  | 29.9 |
| AGAGUCAGACAAAAGUCUGGCUCAGCCGAAGGAGCGUCCGAAAGGACAGGUAGGUCGCGGUUACCUGAGGAUCACCCAGGUUCCU [ArgAS 24 #OpenEnded #AlternativeMS2] | 53.8 | 139 | 86.9 | 115 | 91.5 |
| ACGUUGUAGUCGGCCGCCACUGUUUUCAUGUUCAACAUGAGGAUCACCCAUGUACCUUUUUUUAUCAGGACCGGGACGUAUUCGA [JR_SSTryptoB_Sub003] | 46.5 |  | 102 | 96.8 |  |
| AAAUAAACAUCGGCCGCCACUUACUCAUGAGGUAACAACAUGAGGAUCACCCAUGUUUGAGGAUCAAGGACCGGGAUGUAAUAAA [AstrosSSTryB#1] | 23.1 | 27.3 | 33.6 | 32.9 | 19.6 |

Reference: the supplement of paper PMC9170038
